This is an account of results in US20220162314A1.

For the assay, the target named is Recombinant human CD8ab protein (extracellular domains of CD8a and CD8b with leucine zippers and tags) (human) (UniProt P01732). The assay can be described thus: ELISA: antigen coated on the plate, antibody titrated, anti-IgG (Fc)-HRP and TMB, A450.
Recombinant human CD8ab protein (extracellular domains of CD8a and CD8b with leucine zippers and tags) (human), sequence (P01732 22-182, chain 1 of 2): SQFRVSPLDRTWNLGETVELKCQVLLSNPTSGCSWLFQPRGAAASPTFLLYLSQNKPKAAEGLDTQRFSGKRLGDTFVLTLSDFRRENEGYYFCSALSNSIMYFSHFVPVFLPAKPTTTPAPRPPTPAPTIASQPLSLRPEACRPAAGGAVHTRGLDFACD
Recombinant human CD8ab protein (extracellular domains of CD8a and CD8b with leucine zippers and tags) (human), sequence (P10966 22-170, chain 2 of 2, further chain): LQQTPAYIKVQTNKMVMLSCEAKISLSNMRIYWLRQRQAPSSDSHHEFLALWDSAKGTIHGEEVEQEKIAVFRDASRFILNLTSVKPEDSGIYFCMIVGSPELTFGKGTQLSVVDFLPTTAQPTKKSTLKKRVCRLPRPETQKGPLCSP

As to “xhCD8a2 (clone SK1, Biolegend) (antibody)”, the EC50 (read off the curve) was 0.1 nM.

By EC50 (read off the curve) is commonly meant the midpoint of the concentration-response curve.
